Entries after “also recorded” stand apart in the source; their conditions may differ.
How the values were obtained:
K562 cells [1] = assay: 7-AAD and Annexin V staining of protein-treated K562 cells; assay type: cell-based, human; conditions: proteins 30 μM, imatinib 2.5 μM; 48 and 72 hours after treatment
Experimental: 0.5 μL of 1 mM 7-AAD (Invitrogen) was added to each sample, followed by a 45 minute incubation on ice. […] Analysis was performed using the FACS Canto-II (BD BioSciences, University of Utah Core Facility) with FACS Diva software. 7-AAD and APC were excited at 488 and 635 nm wavelengths, and emissions were detected at 660 nm. Percentage of apoptosis/necrosis was calculated by the percentage of cells that stained positive for 7-AAD and/or APC. Independent treatments were tested three times (n=3).

K562 cells [2] = assay: Peptide internalization Western blot, K562 cells; assay type: cell-based, human; conditions: 30 μM, 1.5 hours, Western blot of cell lysates
Experimental: 1.0×10^6 cells resuspended in RPMI or DMEM were seeded in a CellStar 6 well plate (Sigma Aldrich). Cells were then treated with the peptides (CPP-CCmut3, CPP-CCwt, CCmut3, and CPP-His) at a final concentration 30 uM. This is a standard concentration used in cell-penetrating peptide studies. For the kinase activity Western blot, cells were treated with peptides for 16 hours.
For the internalization experiment, cells were treated with peptides for 1.5 hours followed by a 15 minute incubation at 37° C. with heparin sulfate, 0.5 mg/mL (a gift from Kuby Balagurunathan, University of Utah). Cells were centrifuged and resuspended in 1 mL plain RPMI. Trypsin was added to a final concentration of 0.1% w/v, and the cells were incubated at 37° C. for 10 minutes. At that time 1 mL FBS was added to neutralize the trypsin. Cells were then centrifuged at 500×g for 10 minutes, followed by 3 rounds of washes with 5 mL cold PBS.
For both kinase activity and internalization Western blots, cells were resuspended in 100 μL of RIPA lysis buffer (Cell Signaling, Danvers, Mass., USA) with 100× protease/phosphatase inhibitor added (Cell Signaling) and transferred into a pre-chilled microcentrifuge tube. Cells were then sonicated, centrifuged at 12,000×g for 15 minutes, and then the supernatant was transferred into a fresh, pre-chilled microcentrifuge tube. […]

Ba/F3-p210-T315I cells = assay: Trypan blue proliferation assay of transfected Ba/F3-p210-T315I cells; assay type: cell-based, mouse; conditions: CC^mut3 alone, trypan blue exclusion, 72 and 96 h
Experimental: Cell counts were performed using a standard light microscope.

[3] = test system: Ba/F3 cells expressing BCR-ABL1E255V; assay: Proliferation of transfected Ba/F3 BCR-ABL1 E255V cells (MTS assay); assay type: cell-based, mouse; conditions: CCmut3 vs EV; for proliferation, in words: MTS assay at 72 and 96 h
Experimental: Stable recombinant Ba/F3 cells transduced with wild type p210 BCR-ABL1 (Daley, G. Q., et al. (1991) Proc. Natl. Acad. Sci. U.S.A. 88, 11335-11338), the kinase domain mutants p210^T315I p210^[…], or the compound mutant p210^E255V/T315I were as previously described (La Rosee, P., et al. (2002) Cancer Res. 62, 7149-7153; O'Hare, T., et al. (2004) Blood 104, 2532-2539). These cells were cultured in RPMI with 10% FBS, 1% penicillin, streptomycin, glutamine, and 0.1% gentamycin (RPMI1640). Additionally 0.1% MycoZap™ (Lonza Bio, Basel, Switzerland) was added to prevent mycoplasma contamination. The non-transduced parental Ba/F3 cell line was grown in RPMI1640 supplemented with 20% WEHI-3B conditioned medium as a source of murine IL-3 (Dexter, T. M., et al. (1980) J. Exp. Med. 152, 1036-1047). Ba/F3 cells were transfected with plasmid DNA using the Amaxa nucleofection system (Lonza Bio), following the manufacturer's instructions. Cells were sorted on a BD FACSAria cytometer (BD Biosciences, San Jose, Calif.) for double-positive cells expressing mCherry and GFP then returned to RPMI1640 for subsequent experiments.
Cell proliferation was assessed using the CellTiter 96® AQueous One Solution Cell Proliferation Assay (MTS assay, Promega) according to manufacturer instructions. Briefly, 5,000 viable cells were added to a single well in 96-well plate in 100 μL RPMI1640. Three independent samples were seeded in duplicate for each time point. […] In some experiments, cell proliferation was assessed using a Neubauer chamber and trypan blue dye exclusion.
Stable Ba/F3 cells transduced with native (p210) BCR-ABL1, the kinase domain mutants BCR-ABL1T315I, BCR-ABL1E255V, or the compound mutant BCR-ABL1E255V/T315I were cultured. […]
Cell proliferation was assessed using a […] viability assay (MTS assay) utilizing CellTiter 96® AQueous One Solution Cell Proliferation Assay (Promega) according to manufacturer instructions. […] Cell growth was assessed by MTS assay at 72 and 96 h. […] In patient sample experiments, cell proliferation was assessed by trypan blue exclusion.

B1: CCmut3: modified Bcr-Abl coiled-coil domain (residues 1-72) with mutations C38A, K39E, S41R, L45D, E48R, Q60E (protein)
chain: MVDPVGFAEAWKAQFPDSEPPRMELRSVGDIEQELERAEARIRRDEQRVNQERFRMIYLETLLAKEKKSYDR
induction of apoptosis/necrosis (7-AAD and/or Annexin V positive cells) (K562 cells [1]): did not induce apoptosis | internalization into cells (K562 cells [2]): unable to enter the cells; also recorded: not internalized; also recorded: did not enter | cell proliferation (Ba/F3-p210-T315I cells): inhibit Ba/F3-p210-T315I cell proliferation | reduction of proliferation ([3]; 96 h, MTS assay): approximately 3 fold | proliferation, in words [3]: significant reduction of proliferative capacity; also recorded: lesser, yet significant difference was noted at the 72 h time point | proliferation, in words ([3]; listed as CC^mut3): significant reduction
